Article PMC9352680, “A comprehensive thermodynamic model for RNA binding by the Saccharomyces cerevisiae Pumilio protein PUF4”
Positions count from the first letter of the chain named. Names may count otherwise.

T1: PUF4 RNA-binding domain (Saccharomyces cerevisiae, UniProt P25339 537-888)
T1 sequence: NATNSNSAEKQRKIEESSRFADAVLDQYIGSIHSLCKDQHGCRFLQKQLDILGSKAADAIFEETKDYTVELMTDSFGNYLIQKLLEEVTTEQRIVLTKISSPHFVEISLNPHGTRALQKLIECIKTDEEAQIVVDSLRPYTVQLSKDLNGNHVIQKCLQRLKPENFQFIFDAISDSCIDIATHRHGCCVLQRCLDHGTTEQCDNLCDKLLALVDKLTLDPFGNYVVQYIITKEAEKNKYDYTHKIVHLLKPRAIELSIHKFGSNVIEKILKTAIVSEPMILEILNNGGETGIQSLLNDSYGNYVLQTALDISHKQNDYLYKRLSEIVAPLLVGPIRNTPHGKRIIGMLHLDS

B1: Id_ii_S2_P4E.2_K4.1_C4.2_[C-2G]_H4.1_A4.1_F4.1_T4.2_[G10C]_[T11C] (ssRNA)
RNA: UUUGAUUAAUAUGAUAUCGUUCUUUCUGUUGUAUAUUACCUUCUUUCUCGAUAUCAUAUUAAUCUUU
B2: Id_ii_S2_P4E.2_K4.1_C4.2_[C-2T]_[T-1G]_H4.1_A4.1_F4.1_T4.2_[G10T]_[T11C] (ssRNA)
RNA: B1 RNA with G28U, U29G, C39U
B3: Id_ii_S2_P4E.2_K4.1_C4.2_[C-2T]_H4.1_A4.1_F4.1_T4.2_[G10C] (ssRNA)
RNA: B1 RNA with G28U, C40U
B4: Id_ii_S2_P4E.2_K4.1_C4.2_[C-2T]_[T-1A]_H4.1_A4.1_F4.1_T4.2_[T11C] (ssRNA)
RNA: B1 RNA with G28U, U29A, C39G
B5: Id_ii_S2_P4E.2_K4.1_C4.2_[C-2T]_H4.1_A4.1_F4.1_T4.2_[G10C]_[T11C] (ssRNA)
RNA: B1 RNA with G28U
B6: Id_ii_S2_P4E.2_K4.1_C4.2_[C-2G]_H4.1_A4.1_F4.1_T4.2_[G10T]_[T11C] (ssRNA)
RNA: B1 RNA with C39U
B7: Id_ii_S2_P4E.2_K4.1_C4.2_[C-2T]_H4.1_A4.1_F4.1_T4.2_[G10T] (ssRNA)
RNA: B1 RNA with G28U, C39U, C40U
B8: Id_ii_S2_P4E.2_K4.1_C4.2_[C-2T]_[T-1G]_H4.1_A4.1_F4.1_T4.2_[G10T]_[T11G] (ssRNA)
RNA: B1 RNA with G28U, U29G, C39U, C40G
B9: Id_ii_S2_P4E.2_K4.1_C4.2_[C-2T]_[T-1A]_H4.1_A4.1_F4.1_T4.2_[G10T] (ssRNA)
RNA: B1 RNA with G28U, U29A, C39U, C40U
B10: Id_ii_S2_P4E.2_K4.1_C4.2_[C-2T]_H4.1_A4.1_F4.1_T4.2_[G10T]_[T11A] (ssRNA)
RNA: B1 RNA with G28U, C39U, C40A
B11: Id_ii_S2_P4E.2_K4.1_C4.2_[C-2T]_[T-1A]_H4.1_A4.1_F4.1_T4.2_[G10T]_[T11C] (ssRNA)
RNA: B1 RNA with G28U, U29A, C39U
B12: Id_ii_S2_P4E.2_K4.1_C4.2_[C-2A]_[T-1C]_H4.1_A4.1_F4.1_T4.2_[G10C] (ssRNA)
RNA: B1 RNA with G28A, U29C, C40U
B13: Id_ii_S2_P4E.2_K4.1_C4.2_[C-2G]_H4.1_A4.1_F4.1_T4.2_[G10A]_[T11A] (ssRNA)
RNA: B1 RNA with C39A, C40A
B14: Id_ii_S2_P4E.2_K4.1_C4.2_[C-2A]_[T-1G]_H4.1_A4.1_F4.1_T4.2_[G10A] (ssRNA)
RNA: B1 RNA with G28A, U29G, C39A, C40U
B15: Id_ii_S2_P4E.2_K4.1_C4.2_[C-2A]_[T-1G]_H4.1_A4.1_F4.1_T4.2_[G10T]_[T11G] (ssRNA)
RNA: B1 RNA with G28A, U29G, C39U, C40G
B16: Id_ii_S2_P4E.2_K4.1_C4.2_[C-2T]_[T-1C]_H4.1_A4.1_F4.1_T4.2_[G10T]_[T11C] (ssRNA)
RNA: B1 RNA with G28U, U29C, C39U
B17: Id_ii_S2_P4E.2_K4.1_C4.2_[C-2A]_[T-1C]_H4.1_A4.1_F4.1_T4.2_[G10T]_[T11A] (ssRNA)
RNA: B1 RNA with G28A, U29C, C39U, C40A
B18: Id_ii_S2_P4E.2_K4.1_C4.2_[C-2G]_H4.1_A4.1_F4.1_T4.2_[G10A] (ssRNA)
RNA: B1 RNA with C39A, C40U
B19: Id_ii_S2_P4E.2_K4.1_C4.2_[C-2T]_H4.1_A4.1_F4.1_T4.2_[G10T]_[T11C] (ssRNA)
RNA: B1 RNA with G28U, C39U
B20: Id_ii_S2_P4E.2_K4.1_C4.2_[C-2T]_H4.1_A4.1_F4.1_T4.2_[G10T]_[T11G] (ssRNA)
RNA: B1 RNA with G28U, C39U, C40G
B21: Id_ii_S2_P4E.2_K4.1_C4.2_[C-2T]_[T-1A]_H4.1_A4.1_F4.1_T4.2_[G10A] (ssRNA)
RNA: B1 RNA with G28U, U29A, C39A, C40U
B22: Id_ii_S2_P4E.2_K4.1_C4.2_[C-2T]_[T-1G]_H4.1_A4.1_F4.1_T4.2_[G10T] (ssRNA)
RNA: B1 RNA with G28U, U29G, C39U, C40U
B23: Id_ii_S2_P4E.2_K4.1_C4.2_[C-2T]_H4.1_A4.1_F4.1_T4.2_[T11C] (ssRNA)
RNA: B1 RNA with G28U, C39G
B24: Id_ii_S2_P4E.2_K4.1_C4.2_[C-2T]_H4.1_A4.1_F4.1_T4.2 (ssRNA)
RNA: B1 RNA with G28U, C39G, C40U
B25: Id_ii_S2_P4E.2_K4.1_C4.2_[C-2A]_[T-1C]_H4.1_A4.1_F4.1_T4.2_[G10T]_[T11G] (ssRNA)
RNA: B1 RNA with G28A, U29C, C39U, C40G
B26: Id_ii_S2_P4E.2_K4.1_C4.2_[C-2T]_[T-1C]_H4.1_A4.1_F4.1_T4.2_[G10C] (ssRNA)
RNA: B1 RNA with G28U, U29C, C40U
B27: Id_ii_S2_P4E.2_K4.1_C4.2_[C-2A]_[T-1G]_H4.1_A4.1_F4.1_T4.2_[G10A]_[T11A] (ssRNA)
RNA: B1 RNA with G28A, U29G, C39A, C40A
B28: Id_ii_S2_P4E.2_K4.1_C4.2_[C-2T]_[T-1A]_H4.1_A4.1_F4.1_T4.2_[G10C]_[T11C] (ssRNA)
RNA: B1 RNA with G28U, U29A
B29: Id_ii_S2_P4E.2_K4.1_C4.2_[C-2T]_H4.1_A4.1_F4.1_T4.2_[G10A] (ssRNA)
RNA: B1 RNA with G28U, C39A, C40U
B30: Id_ii_S2_P4E.2_K4.1_C4.2_[C-2T]_[T-1C]_H4.1_A4.1_F4.1_T4.2_[G10A]_[T11A] (ssRNA)
RNA: B1 RNA with G28U, U29C, C39A, C40A
B31: Id_ii_S2_P4E.2_K4.1_C4.2_[C-2A]_[T-1G]_H4.1_A4.1_F4.1_T4.2_[G10T]_[T11C] (ssRNA)
RNA: B1 RNA with G28A, U29G, C39U
B32: Id_ii_S2_P4E.2_K4.1_C4.2_[C-2T]_[T-1A]_H4.1_A4.1_F4.1_T4.2 (ssRNA)
RNA: B1 RNA with G28U, U29A, C39G, C40U
B33: Id_ii_S2_P4E.2_K4.1_C4.2_[C-2A]_[T-1C]_H4.1_A4.1_F4.1_T4.2_[G10T]_[T11C] (ssRNA)
RNA: B1 RNA with G28A, U29C, C39U
B34: Id_ii_S2_P4E.2_K4.1_C4.2_[C-2T]_[T-1G]_H4.1_A4.1_F4.1_T4.2_[G10A]_[T11A] (ssRNA)
RNA: B1 RNA with G28U, U29G, C39A, C40A
B35: Id_ii_S2_P4E.2_K4.1_C4.2_[C-2T]_[T-1C]_H4.1_A4.1_F4.1_T4.2_[G10A]_[T11C] (ssRNA)
RNA: B1 RNA with G28U, U29C, C39A
B36: Id_ii_S2_P4E.2_K4.1_C4.2_[C-2G]_H4.1_A4.1_F4.1_T4.2_[G10T]_[T11G] (ssRNA)
RNA: B1 RNA with C39U, C40G
B37: Id_ii_S2_P4E.2_K4.1_C4.2_[C-2T]_[T-1C]_H4.1_A4.1_F4.1_T4.2 (ssRNA)
RNA: B1 RNA with G28U, U29C, C39G, C40U
B38: Id_ii_S2_P4E.2_K4.1_C4.2_[C-2T]_[T-1C]_H4.1_A4.1_F4.1_T4.2_[G10C]_[T11C] (ssRNA)
RNA: B1 RNA with G28U, U29C
B39: Id_ii_S2_P4E.2_K4.1_C4.2_[C-2T]_[T-1G]_H4.1_A4.1_F4.1_T4.2_[G10A] (ssRNA)
RNA: B1 RNA with G28U, U29G, C39A, C40U
B40: Id_ii_S2_P4E.2_K4.1_C4.2_[C-2T]_[T-1A]_H4.1_A4.1_F4.1_T4.2_[G10A]_[T11A] (ssRNA)
RNA: B1 RNA with G28U, U29A, C39A, C40A
B41: Id_ii_S2_P4E.2_K4.1_C4.2_[C-2G]_H4.1_A4.1_F4.1_T4.2_[G10T]_[T11A] (ssRNA)
RNA: B1 RNA with C39U, C40A

Target: T1, PUF4 RNA-binding domain
Assay: Mg; RNA-MaP; 20 mM Na-HEPES pH 7.4, 30 mM KOAc, 0.75 mM MgCl2, 0.1% Tween-20, 5% glycerol, 0.1 mg/mL BSA, 2 mM DTT; 25 C; 0.0125-409.6 nM protein
Conditions: tags: N-His6-TEV cleaved; C-SNAP kept, Cy3B-labelled; label: tethered on chip by stalled RNA polymerase

Row | Binder | Kd [nM]
1 | B1 | 1.8
2 | B2 | 0.441
3 | B3 | 0.762
4 | B4 | 0.523
5 | B5 | 0.557
6 | B6 | 1.6
7 | B7 | 0.26
8 | B8 | 0.416
9 | B9 | 0.502
10 | B10 | 0.564
11 | B11 | 0.618
12 | B12 | 1.25
13 | B13 | 0.659
14 | B14 | 0.973
15 | B15 | 1.63
16 | B16 | 0.305
17 | B17 | 0.628
18 | B18 | 0.724
19 | B19 | 0.364
20 | B20 | 0.421
21 | B21 | 0.878
22 | B22 | 0.23
23 | B23 | 0.396

Row | Binder | Kd [nM]
24 | B24 | 0.456
25 | B25 | 1.95
26 | B26 | 0.602
27 | B27 | 1.64
28 | B28 | 0.822
29 | B29 | 0.408
30 | B30 | 0.481
31 | B31 | 2.27
32 | B32 | 0.715
33 | B33 | 0.33
34 | B34 | 0.532
35 | B35 | 0.526
36 | B36 | 0.585
37 | B37 | 0.446
38 | B38 | 0.565
39 | B39 | 0.4
40 | B40 | 1.03
41 | B41 | 0.928
42 | UCUCUUAGUAUUAUUGUCUCUU (ssRNA) [Ib_S1_P5E.1_K5.1_C5.1_H5.1_[T1A]_A5.1_F5.1_[A10G]_T5.1] | > 2300
43 | UCUCUUGGUAUUAUUCUCUCUU (ssRNA) [Ib_S1_P5E.1_K5.1_C5.1_H5.1_[T1G]_A5.1_F5.1_[A10C]_T5.1] | > 2300
44 | UCUCUUGGUAUUAUUGUCUCUU (ssRNA) [Ib_S1_P5E.1_K5.1_C5.1_H5.1_[T1G]_A5.1_F5.1_[A10G]_T5.1] | > 2300
45 | UCUCUUUGUUUUAUAAUCUCUU (ssRNA) [Ib_S1_P5E.1_K5.1_C5.1_H5.1_[A4T]_A5.1_F5.1_[T9A]_T5.1] | 87.4
